{"source": "the domain aggregation screens of Martell et al. (2025)", "data": [{"experiment": "soluble fraction after stress (log2 fold change); higher = more stays soluble; pooled small domains, quantitative proteomics", "conditions": "stress: 50 degC", "procedure,_shortened": "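The measure of aggregation propensity here is the base-two logarithm of the fold change in the soluble amount of each protein after stress. A higher value means more of that protein stays in solution. Stress was applied at 50°C to pooled libraries of small protein domains, read out by high-throughput quantitative proteomics.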", "values": [{"sequence": "HMYYDDEELDDYRGKASDAYTAAEVEQFEEVLTTMRPEEVHGWLRSLQLRGVALPDALKDEAYMIVSEQAE", "soluble fraction (log2)": -0.252}, {"sequence": "HMAAMDMFVKLDALDAELTEQLKALPAEPDDARVERGLALLTDYDHRIKALLTEIFGGENDFDKVL", "soluble fraction (log2)": -2.4}, {"sequence": "HMYNSYALTARELELVNYVLKGNSRREMAEDSGLKENTVASYMKRLYRKIKVHSRKELKELFM", "soluble fraction (log2)": -0.0805}, {"sequence": "HMENKTGEVTVREDSALTLRQGPGTNYEKVGQAYRGDRVDVLEEQNGWYKVKTYDGKEAWASSSYISIV", "soluble fraction (log2)": 0.454}, {"sequence": "HMDLLESLSAREREVVHLASRGLVNKLIARELGITERTVKAHLSSAFEKLHIKDRVHLALLVNGI", "soluble fraction (log2)": -1.45}, {"sequence": "HMQTTKTGTITASSLYVRSGASTSHKVLGTVSKGKTVQIKDTQDGWHKISYNGDHGWVSGKYVSTT", "soluble fraction (log2)": "≥ 0.62"}, {"sequence": "HMSTTSYTQFMEDAKAGKIARVDIKGREITVTPTEGSRYVITSPGDLWMVDDLRKDGVQVYGPP", "soluble fraction (log2)": 0.101}, {"sequence": "HMDRLTISTLGNGLFRVNGAEAEATVYNLSGNVVKVVPADEVIDLSSLAKGVYIIHVDGEAFKVI", "soluble fraction (log2)": -0.86}, {"sequence": "HMGRKIDDPSSMTGAEKAAVILLALGDEQRQLWEMMDDEEIRVVSQAMVNLGNVTSGAVEKLIMEFVGSMS", "soluble fraction (log2)": -0.243}, {"sequence": "HMYMWQVEDLLRANELDIENIKKTIIDHYQLDDAQKSELTRWYEDLINMMRLEGVTKEGHLQINK", "soluble fraction (log2)": -1.41}, {"sequence": "HMPDRQKDIQNWQQIAETLLNMLDKYVAALETGKTGLAEAYKAIFAETLRRLDDRLDPEQFLP", "soluble fraction (log2)": -1.54}, {"sequence": "HMTSAHEKAFDLFDGGKLSEKALLIAVGAERSGFELAGDLRLRTLTAFEDGRLSEDAMIKLL", "soluble fraction (log2)": -0.385}, {"sequence": "HMHRTRNAERTRAAVLKAAAEVLAERGTGASLARIAEVAGVSKSGLLHHFANREQLIVALLED", "soluble fraction (log2)": -0.984}, {"sequence": "HMALYSEQVSEIEKALMSLPPKYQLVMLLLYAEDLKYEQIAEILDEPIGTVKTKIHRARKILKERF", "soluble fraction (log2)": -0.46}, {"sequence": "HMSQLTVGTVVTGNASLQTQGLKLPSFASGSRPASPNIGQMIWNSSDAKAQIWNGSEWDDVG", "soluble fraction (log2)": -0.198}, {"sequence": "HMKQLLHLVIGGELKDVRGIEFEDLSKIDFVGAFPSYKAAYDAWKNAAQRTVDNAEMRYFILHAHR", "soluble fraction (log2)": -1.79}, {"sequence": "HMKPSTVSVPDVSGDKLSTAKMIIRKSGLKVGDVQKIEDDNVGAGKVVRTNPSAGSKKREGSSVDIFVASA", "soluble fraction (log2)": 0.16}, {"sequence": "HMRENAARNRNVNLDIGETLRVDAWSPERRARVQYRGAAWDVELAPNAPATVGEFRIVEVRGNVLVVTP", "soluble fraction (log2)": 0.0231}, {"sequence": "HMIPENKRVLISLTYIYGIGKKISQDILEKANIDSSIKTSQLTDDDVARIRQLIENDYLVEGELRV", "soluble fraction (log2)": 0.0489}, {"sequence": "HMIDTTKILPGQEFKNMQELSVALTGQKMPAGKGYVLQQEKFKLYFSWKKITGTHKLIIDEIYEEPKT", "soluble fraction (log2)": -3.44}, {"sequence": "HMQDYISAEEAKSAALSASQVDSAGAAFSAAELGEKNGIPYYEVAFTADGLEYRYAIDAQTGTVIESSSSG", "soluble fraction (log2)": 0.0366}, {"sequence": "HMHPARITATVRVGEGDLVDIEREAELGGPIHSKGVMILSSFLGARYARTVPLSLSASLVFEQSY", "soluble fraction (log2)": 0.0114}, {"sequence": "HMNYLDVNIPVTSAVWMGKQLPEMGTLIYLTPDKDVEGMLFIKQATKDKPDGEYIEAKVLGYKEGRVLFDF", "soluble fraction (log2)": -0.547}, {"sequence": "HMLSKEERRSQLLDLGVRLLSTRSLDELSIDLLAEEAGISRGLLYHYFGNKHDFHEAVVRRAADDLI", "soluble fraction (log2)": -1.75}, {"sequence": "HMGVSLREVPVAEHGDWIGRPIKELGIPAEVLIVLVRRADGTTVVPKGGTVLQQGDMLVVNEWEE", "soluble fraction (log2)": -0.426}, {"sequence": "HMGESYGPVRRGETLWSIAEKVKPAGVSTQKELAAIYAANPQAFIRGDINLLKAGAELRLPSPEAL", "soluble fraction (log2)": 0.172}, {"sequence": "HMSEHKFIVPEEFNLKRLDQTVAAQFEKISRTKISKIIKSSLLKVNDKVVTDQSIKIKQDDVITFTEIKDQ", "soluble fraction (log2)": 0.0288}, {"sequence": "HMGGEKLPAPVAGTLLRYSVAEGARVSEGQTVIILESMKMELEINTPKAGVIHFLAAVGAQVAEGDTLAEI", "soluble fraction (log2)": -1.82}, {"sequence": "HMISDAEWTIMKALWQSEDKKMTLKEIAEAVADSGWSYTTVRTMVGRLVEKEAIEADESHPRNFRYSAA", "soluble fraction (log2)": -1.23}, {"sequence": "HMNKSGVVLIRVTVDASGRVTSAAYEPKGSTTSDVELVAEARKAALRTRFTESRTVIEGGVITYIFKL", "soluble fraction (log2)": -2.28}, {"sequence": "HMNTFKNIFIQEGDLFNLKKNDNQIIFAKEGILINENKKIFRLLNGKIISTNNNRLIGFEFDKIDYNLSN", "soluble fraction (log2)": 0.489}, {"sequence": "HMEETLRALAKKISEKVLKSGRSTTLEPMNPYERRIIHSAVSEIEGVSSKSVGEEPYRKVVISSDNP", "soluble fraction (log2)": 0.0364}, {"sequence": "HMQISDEGELSGIVRKIIDANPQSVADYKAGKKKAIGFLVGQIMIETKGRANPASVNELLIKKLE", "soluble fraction (log2)": -0.0642}, {"sequence": "HMSVSTGTITGSVVNLREEPNTSSKVLDKLPKDTVVYVLSASGEWYNVSYGDKTGWVYGEYLA", "soluble fraction (log2)": -0.163}, {"sequence": "HMEALTPREREVLTLMGQGRSNAEIATLLSIAPRTAKVHVQNILSKLGATNRTEAVSLAVRQGLIS", "soluble fraction (log2)": 0.301}, {"sequence": "HMPQPEIEIAAVVPYSAGALLSRIHDDGELLAPVEYRGEGVFVHARVPADIEAAMRRGGMLSPAET", "soluble fraction (log2)": 0.0913}, {"sequence": "HMIETIQVPRAFNDWHEQADKTKSVFEVYAEIEASENEKLIAWVRNNQNEFAKIWLGALIPELE", "soluble fraction (log2)": -1.39}, {"sequence": "HMLTDAAAVKRSVRNLVQYGFYEKPFHPEIGSGVRDLLFENMTPFVANNLSKQIEEIITNYEPRA", "soluble fraction (log2)": -0.396}, {"sequence": "HMKTEKYIQVISGTVNVRSGPGTSYAEIAKIDASQIYVVTAKEGEWLKISLANGTIGYVAGWLVKEVTG", "soluble fraction (log2)": -0.186}, {"sequence": "HMSAPLKELGNDPESGKPIVVKDGRFGAYVTDGETNATLRKTDAVESLTPERAAELLAEKRAKG", "soluble fraction (log2)": 0.168}, {"sequence": "HMSGDYRPLYPNLPESEKSEAFNLLAGSALPARLDDRTGDIMVPADRYYEARMILANAGFAD", "soluble fraction (log2)": 0.0141}, {"sequence": "HMVHSEDLQDHKYVSQLGEVFLKENPNYENIKKSWGDHMVVIKKFGRYPHRNKILNRKSTPEELEFLKG", "soluble fraction (log2)": -0.0131}, {"sequence": "HMIDIGSKIKKLRSKKSIEIGKKYTGAMLANELGISRSYLGDIESGRTVPNEIILGKIADIFDVDIYELIG", "soluble fraction (log2)": -0.256}, {"sequence": "HMITNLEPFKDFVRGFSGLHLEGVGQEKLAAALDERIRKTGSANERDYLQLIMEDVAERLKLINILT", "soluble fraction (log2)": 0.0546}, {"sequence": "HMQLTPAQHAILAYAIEHTGGKIEWFPDNIKGGARTKVLEGLFNKALITRDSTDWFVAAEGYDALGR", "soluble fraction (log2)": -0.549}, {"sequence": "HMNTPNYDVLYRGLADADAGQIMEALQKSNIPFKVDSHSGVLLVPADQVHEARLKLASQGLPRG", "soluble fraction (log2)": 0.0262}, {"sequence": "HMPGLQSVTPAELKIGMYVILPLAWDEHPFLKNHFLIQSEAQINKIRELGTKGIQIDLSKSHP", "soluble fraction (log2)": -0.904}, {"sequence": "HMGDWEDFWEKEARRRKLSLDYQVVRSLSRWSREYDWGEEDVEQFLSQFPEGETVKMEDVELYFE", "soluble fraction (log2)": -1.12}, {"sequence": "HMLEQEQFESKLLKAINNINETQRIAFLMHRIDGKKYAEIASELNISVKAVEKRIHLALIELKKEIENF", "soluble fraction (log2)": -0.871}, {"sequence": "HMVSGLEILKIQVQDHPSDWRWALLLARTHYENGNREAAVRTLRPLQRLHPDRLEVMTLWALLA", "soluble fraction (log2)": -0.00253}, {"sequence": "HMANGTVKWFNTTKGFGFIAPETGGKDVFVHISAVERSGLTGLADDQKVTFDVEAGRDGRESAVNLAL", "soluble fraction (log2)": 0.0396}]}]}
